Laboratory results as given in paper PMC3633659.

Assays:
[1] = target: Mamu-B*010:01 (Chinese rhesus macaque | not stated); assay: radioligand binding
[2] = target: Mamu-A2*01:02 (Chinese rhesus macaque | not stated); assay: radioligand binding

MRDHTITLL [… (C. trachomatis NADH-ubiquinone-oxidoreductase-a-chain)] was tested, and the IC50 [1] was 0.008 µM and the IC50 [2] was over 20 µM.

Binder DRLALLANL [… (C. trachomatis recC exodeoxyribonuclease-V g chain)] has an IC50 [1] of over 20 µM and an IC50 [2] of 19.1 µM.

NRAKQVIKL [… (C. trachomatis protease ATPase)] showed an IC50 [1] of 0.106 µM and an IC50 [2] of over 20 µM.

RRYQKSTEL [… (E. coli derived)] showed an IC50 [1] of 0.291 µM and an IC50 [2] of 6.65 µM.

SRHHAFCFR [… (Aggrecan precursor p667)] showed an IC50 [1] of over 20 µM and an IC50 [2] of 2.06 µM.

With EREQTLNQL [… (C. trachomatis ATP-dependent zinc protein)] the IC50 [1] was over 20 µM and the IC50 [2] was 13.2 µM.

With KRVVINKDT [… (Y. enterocolitica Hsp60)] the IC50 [1] was over 20 µM and the IC50 [2] was over 20 µM.
